This experiment has as its target T1, Polycystin 2 (PC2), human, endogenous in PTEC (human (endogenous in PTEC), UniProt Q13563 1-968).
T1 construct: Polycystin 2 (PC2), encoded by the PKD2 gene, human, endogenous in PTEC; no construct, no residues stated; Endogenous protein, immunoprecipitated with anti-Polycystin-2 antibodies (Santa Cruz)
T1 sequence (looked up): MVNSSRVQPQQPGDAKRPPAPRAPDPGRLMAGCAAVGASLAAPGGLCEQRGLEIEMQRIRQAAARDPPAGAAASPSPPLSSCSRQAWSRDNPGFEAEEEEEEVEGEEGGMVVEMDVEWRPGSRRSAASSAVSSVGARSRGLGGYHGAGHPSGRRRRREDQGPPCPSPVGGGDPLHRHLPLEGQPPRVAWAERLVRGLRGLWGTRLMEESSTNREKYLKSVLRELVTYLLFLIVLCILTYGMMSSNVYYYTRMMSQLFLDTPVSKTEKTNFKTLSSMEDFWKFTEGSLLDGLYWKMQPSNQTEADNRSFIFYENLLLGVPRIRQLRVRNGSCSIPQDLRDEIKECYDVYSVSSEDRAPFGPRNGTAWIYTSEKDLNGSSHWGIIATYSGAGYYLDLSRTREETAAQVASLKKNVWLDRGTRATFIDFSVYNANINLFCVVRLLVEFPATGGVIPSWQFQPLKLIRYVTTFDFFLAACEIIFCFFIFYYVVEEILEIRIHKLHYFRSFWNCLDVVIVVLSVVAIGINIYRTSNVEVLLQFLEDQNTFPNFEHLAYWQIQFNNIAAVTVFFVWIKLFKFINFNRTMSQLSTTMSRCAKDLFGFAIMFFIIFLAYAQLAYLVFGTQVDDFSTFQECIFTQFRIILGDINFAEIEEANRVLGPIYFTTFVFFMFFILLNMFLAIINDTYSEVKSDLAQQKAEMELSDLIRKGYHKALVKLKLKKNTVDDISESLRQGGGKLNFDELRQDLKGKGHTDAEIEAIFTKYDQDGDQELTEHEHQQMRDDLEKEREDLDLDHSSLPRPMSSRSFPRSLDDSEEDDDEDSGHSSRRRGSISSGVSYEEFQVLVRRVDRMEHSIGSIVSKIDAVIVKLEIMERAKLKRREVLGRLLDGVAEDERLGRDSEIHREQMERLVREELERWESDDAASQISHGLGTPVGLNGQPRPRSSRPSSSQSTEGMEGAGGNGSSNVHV
The experiment is described as follows: co-IP; PTEC wt and PC1KD (PKD1 knocked down) lysates (1% Triton X-100, 150 mM NaCl, 25 mM Hepes pH 7.4); anti-PC2 antibodies coupled to protein A-Sepharose, overnight; immunoblot with anti-CaSR and anti-PC2. As to conditions: partners not purified. For orientation: Immunoblotting shows a protein as a band on a membrane.

B1: Calcium Sensing Receptor (CaSR), human, endogenous in PTEC (receptor, human (endogenous in PTEC), UniProt P41180 20-1078, looked up)
chain: YGPDQRAQKKGDIILGGLFPIHFGVAAKDQDLKSRPESVECIRYNFRGFRWLQAMIFAIEEINSSPALLPNLTLGYRIFDTCNTVSKALEATLSFVAQNKIDSLNLDEFCNCSEHIPSTIAVVGATGSGVSTAVANLLGLFYIPQVSYASSSRLLSNKNQFKSFLRTIPNDEHQATAMADIIEYFRWNWVGTIAADDDYGRPGIEKFREEAEERDICIDFSELISQYSDEEEIQHVVEVIQNSTAKVIVVFSSGPDLEPLIKEIVRRNITGKIWLASEAWASSSLIAMPQYFHVVGGTIGFALKAGQIPGFREFLKKVHPRKSVHNGFAKEFWEETFNCHLQEGAKGPLPVDTFLRGHEESGDRFSNSSTAFRPLCTGDENISSVETPYIDYTHLRISYNVYLAVYSIAHALQDIYTCLPGRGLFTNGSCADIKKVEAWQVLKHLRHLNFTNNMGEQVTFDECGDLVGNYSIINWHLSPEDGSIVFKEVGYYNVYAKKGERLFINEEKILWSGFSREVPFSNCSRDCLAGTRKGIIEGEPTCCFECVECPDGEYSDETDASACNKCPDDFWSNENHTSCIAKEIEFLSWTEPFGIALTLFAVLGIFLTAFVLGVFIKFRNTPIVKATNRELSYLLLFSLLCCFSSSLFFIGEPQDWTCRLRQPAFGISFVLCISCILVKTNRVLLVFEAKIPTSFHRKWWGLNLQFLLVFLCTFMQIVICVIWLYTAPPSSYRNQELEDEIIFITCHEGSLMALGFLIGYTCLLAAICFFFAFKSRKLPENFNEAKFITFSMLIFFIVWISFIPAYASTYGKFVSAVEVIAILAASFGLLACIFFNKIYIILFKPSRNTIEEVRCSTAAHAFKVAARATLRRSNVSRKRSSSLGGSTGSTPSSSISSKSNSEDPFPQPERQKQQQPLALTQQEQQQQPLTLPQQQRSQQQPRCKQKVIFGSGTVTFSLSFDEPQKNAMAHRNSTHQNSLEAQKSSDTLTRHEPLLPLQCGETDLDLTVQETGLQGPVGGDQRPEVEDPEELSPALVVSSSQSFVISGGGSTVTENVVNS
notes: Calcium sensing receptor (CaSR), human, endogenous in PTEC; no construct, no residues stated; Endogenous protein, detected with a monoclonal anti-CaSR antibody (Sigma C0493); also called extracellular calcium sensing receptor
As to B1, the “amount of CaSR immunoprecipitated with PC2 in PC1KD cells relative to wt (ratio CaSR/PC2)” value is 1.34 fold (wt = 1).

The record behind these values is PMC12732451, “Functional Coupling of Calcium-Sensing Receptor and Polycystin-2 in Renal Epithelial Cells: Physiological Role and Potential Therapeutic Target in Polycystic Kidney Disease” (International Journal of Molecular Sciences, 2025).
